In patent US20200024322A1 (Eli Lilly, published 2020):
Numbered stars: 1 amine (or outer) side, 2 acyl side, 3 side chain; on linkers, the order of the positions; unused ones are H or OH. Square brackets hold non-standard residues; d marks the D form. Side chains are listed from the residue outwards. Ends that are not written are not given here. * marks the point of attachment. C20 diacid = O=C(O)CCCCCCCCCCCCCCCCCCC(=O)*; γGlu = O=C(O)[C@H](CCC(=O)[*:2])N[*:1]; αMeL = CC(C)C[C@](C)(N)C(=O)O; αMeK = C[C@](N)(CCCCN)C(=O)O; Dab = NCC[C@H](N)C(=O)O; AEEA = NCCOCCOCC(=O)O; Aib = CC(C)(N)C(=O)O

T1: human GIP receptor (human, UniProt P48546 22-466)
T1 construct: whole, on cells; Used as crude membranes of stably transfected CHO cells; also called hGIPR
T1 sequence (looked up): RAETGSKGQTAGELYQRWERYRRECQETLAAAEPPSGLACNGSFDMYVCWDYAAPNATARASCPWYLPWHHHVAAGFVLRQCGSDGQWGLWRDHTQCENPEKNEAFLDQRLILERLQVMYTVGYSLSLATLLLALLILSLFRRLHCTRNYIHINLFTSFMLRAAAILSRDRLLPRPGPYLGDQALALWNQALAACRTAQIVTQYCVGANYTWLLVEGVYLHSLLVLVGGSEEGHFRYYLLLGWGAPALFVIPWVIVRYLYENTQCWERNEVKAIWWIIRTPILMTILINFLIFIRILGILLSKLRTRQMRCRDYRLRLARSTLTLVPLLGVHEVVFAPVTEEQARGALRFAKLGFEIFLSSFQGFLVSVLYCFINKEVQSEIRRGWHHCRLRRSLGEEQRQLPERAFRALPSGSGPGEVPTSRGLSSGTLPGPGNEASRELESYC

T2: human GIP receptor (human, UniProt P48546 22-466)
T2 construct: whole, on cells; also called hGIPR; hGIP-R
T2 sequence (looked up): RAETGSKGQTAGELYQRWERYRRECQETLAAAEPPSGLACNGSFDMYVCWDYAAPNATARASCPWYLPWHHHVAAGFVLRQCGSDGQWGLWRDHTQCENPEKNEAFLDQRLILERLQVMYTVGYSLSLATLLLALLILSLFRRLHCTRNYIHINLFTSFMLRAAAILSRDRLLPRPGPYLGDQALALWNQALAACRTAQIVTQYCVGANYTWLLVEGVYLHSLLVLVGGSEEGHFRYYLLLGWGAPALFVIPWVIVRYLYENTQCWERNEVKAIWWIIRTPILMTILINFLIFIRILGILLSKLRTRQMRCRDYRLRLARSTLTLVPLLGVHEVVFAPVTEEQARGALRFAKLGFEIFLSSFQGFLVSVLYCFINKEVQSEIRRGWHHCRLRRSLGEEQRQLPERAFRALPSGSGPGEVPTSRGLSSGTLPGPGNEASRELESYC

B1: Example 15 (peptide)
peptide: H[Aib]EGTFTSDYSILLDKK([AEEA-AEEA-γGlu-C20 diacid])AQ[Aib]AFIEYLLE[Aib]GPSSGAPPPS-NH2
modifications: N-terminus assumed
SMILES: CC[C@H](C)[C@H](NC(=O)[C@H](Cc1ccccc1)NC(=O)[C@H](C)NC(=O)C(C)(C)NC(=O)[C@H](CCC(N)=O)NC(=O)[C@H](C)NC(=O)[C@H](CCCCNC(=O)COCCOCCNC(=O)COCCOCCNC(=O)CC[C@H](NC(=O)CCCCCCCCCCCCCCCCCCC(=O)O)C(=O)O)NC(=O)[C@H](CCCCN)NC(=O)[C@H](CC(=O)O)NC(=O)[C@H](CC(C)C)NC(=O)[C@H](CC(C)C)NC(=O)[C@@H](NC(=O)[C@H](CO)NC(=O)[C@H](Cc1ccc(O)cc1)NC(=O)[C@H](CC(=O)O)NC(=O)[C@H](CO)NC(=O)[C@@H](NC(=O)[C@H](Cc1ccccc1)NC(=O)[C@@H](NC(=O)CNC(=O)[C@H](CCC(=O)O)NC(=O)C(C)(C)NC(=O)[C@@H](N)Cc1c[nH]cn1)[C@@H](C)O)[C@@H](C)O)[C@@H](C)CC)C(=O)N[C@@H](CCC(=O)O)C(=O)N[C@@H](Cc1ccc(O)cc1)C(=O)N[C@@H](CC(C)C)C(=O)N[C@@H](CC(C)C)C(=O)N[C@@H](CCC(=O)O)C(=O)NC(C)(C)C(=O)NCC(=O)N1CCC[C@H]1C(=O)N[C@@H](CO)C(=O)N[C@@H](CO)C(=O)NCC(=O)N[C@@H](C)C(=O)N1CCC[C@H]1C(=O)N1CCC[C@H]1C(=O)N1CCC[C@H]1C(=O)N[C@@H](CO)C(N)=O
B2: Example 16 (peptide)
peptide: H[Aib]EGTFTSDYSILLDKK([AEEA-AEEA-γGlu-C20 diacid])AQ[Aib]AFIEYLIE[Aib]GPSSGAPPPS-NH2
modifications: N-terminus assumed
SMILES: CC[C@H](C)[C@H](NC(=O)[C@H](Cc1ccccc1)NC(=O)[C@H](C)NC(=O)C(C)(C)NC(=O)[C@H](CCC(N)=O)NC(=O)[C@H](C)NC(=O)[C@H](CCCCNC(=O)COCCOCCNC(=O)COCCOCCNC(=O)CC[C@H](NC(=O)CCCCCCCCCCCCCCCCCCC(=O)O)C(=O)O)NC(=O)[C@H](CCCCN)NC(=O)[C@H](CC(=O)O)NC(=O)[C@H](CC(C)C)NC(=O)[C@H](CC(C)C)NC(=O)[C@@H](NC(=O)[C@H](CO)NC(=O)[C@H](Cc1ccc(O)cc1)NC(=O)[C@H](CC(=O)O)NC(=O)[C@H](CO)NC(=O)[C@@H](NC(=O)[C@H](Cc1ccccc1)NC(=O)[C@@H](NC(=O)CNC(=O)[C@H](CCC(=O)O)NC(=O)C(C)(C)NC(=O)[C@@H](N)Cc1c[nH]cn1)[C@@H](C)O)[C@@H](C)O)[C@@H](C)CC)C(=O)N[C@@H](CCC(=O)O)C(=O)N[C@@H](Cc1ccc(O)cc1)C(=O)N[C@@H](CC(C)C)C(=O)N[C@H](C(=O)N[C@@H](CCC(=O)O)C(=O)NC(C)(C)C(=O)NCC(=O)N1CCC[C@H]1C(=O)N[C@@H](CO)C(=O)N[C@@H](CO)C(=O)NCC(=O)N[C@@H](C)C(=O)N1CCC[C@H]1C(=O)N1CCC[C@H]1C(=O)N1CCC[C@H]1C(=O)N[C@@H](CO)C(N)=O)[C@@H](C)CC
B3: Example 17 (peptide)
peptide: H[Aib]EGTFTSDYSILLDKIAQK([AEEA-AEEA-γGlu-C20 diacid])AFIEYLLE[Aib]GPSSG-NH2
modifications: N-terminus assumed
SMILES: CC[C@H](C)[C@H](NC(=O)[C@H](CCCCN)NC(=O)[C@H](CC(=O)O)NC(=O)[C@H](CC(C)C)NC(=O)[C@H](CC(C)C)NC(=O)[C@@H](NC(=O)[C@H](CO)NC(=O)[C@H](Cc1ccc(O)cc1)NC(=O)[C@H](CC(=O)O)NC(=O)[C@H](CO)NC(=O)[C@@H](NC(=O)[C@H](Cc1ccccc1)NC(=O)[C@@H](NC(=O)CNC(=O)[C@H](CCC(=O)O)NC(=O)C(C)(C)NC(=O)[C@@H](N)Cc1c[nH]cn1)[C@@H](C)O)[C@@H](C)O)[C@@H](C)CC)C(=O)N[C@@H](C)C(=O)N[C@@H](CCC(N)=O)C(=O)N[C@@H](CCCCNC(=O)COCCOCCNC(=O)COCCOCCNC(=O)CC[C@H](NC(=O)CCCCCCCCCCCCCCCCCCC(=O)O)C(=O)O)C(=O)N[C@@H](C)C(=O)N[C@@H](Cc1ccccc1)C(=O)N[C@H](C(=O)N[C@@H](CCC(=O)O)C(=O)N[C@@H](Cc1ccc(O)cc1)C(=O)N[C@@H](CC(C)C)C(=O)N[C@@H](CC(C)C)C(=O)N[C@@H](CCC(=O)O)C(=O)NC(C)(C)C(=O)NCC(=O)N1CCC[C@H]1C(=O)N[C@@H](CO)C(=O)N[C@@H](CO)C(=O)NCC(N)=O)[C@@H](C)CC
B4: Example 330 (peptide)
peptide: Y[Aib]EGTFTSDYSILLDEK([AEEA-AEEA-γGlu-C20 diacid])AQ[Aib]AFIEYLIAGGPSSGAPPPS-NH2
modifications: N-terminus assumed
SMILES: CC[C@H](C)[C@H](NC(=O)[C@H](CC(C)C)NC(=O)[C@H](Cc1ccc(O)cc1)NC(=O)[C@H](CCC(=O)O)NC(=O)[C@@H](NC(=O)[C@H](Cc1ccccc1)NC(=O)[C@H](C)NC(=O)C(C)(C)NC(=O)[C@H](CCC(N)=O)NC(=O)[C@H](C)NC(=O)[C@H](CCCCNC(=O)COCCOCCNC(=O)COCCOCCNC(=O)CC[C@H](NC(=O)CCCCCCCCCCCCCCCCCCC(=O)O)C(=O)O)NC(=O)[C@H](CCC(=O)O)NC(=O)[C@H](CC(=O)O)NC(=O)[C@H](CC(C)C)NC(=O)[C@H](CC(C)C)NC(=O)[C@@H](NC(=O)[C@H](CO)NC(=O)[C@H](Cc1ccc(O)cc1)NC(=O)[C@H](CC(=O)O)NC(=O)[C@H](CO)NC(=O)[C@@H](NC(=O)[C@H](Cc1ccccc1)NC(=O)[C@@H](NC(=O)CNC(=O)[C@H](CCC(=O)O)NC(=O)C(C)(C)NC(=O)[C@@H](N)Cc1ccc(O)cc1)[C@@H](C)O)[C@@H](C)O)[C@@H](C)CC)[C@@H](C)CC)C(=O)N[C@@H](C)C(=O)NCC(=O)NCC(=O)N1CCC[C@H]1C(=O)N[C@@H](CO)C(=O)N[C@@H](CO)C(=O)NCC(=O)N[C@@H](C)C(=O)N1CCC[C@H]1C(=O)N1CCC[C@H]1C(=O)N1CCC[C@H]1C(=O)N[C@@H](CO)C(N)=O
B5: Example 18 (peptide)
peptide: H[Aib]EGTFTSDYSI[αMeL]LDKK([Dab-AEEA-Dab-AEEA-C20 diacid])AQ[αMeK]AFIQYLLA[Aib]GPSSGAPKPS-NH2
B6: Example 19 (peptide)
peptide: H[Aib]EGTFTSDYSI[αMeL]LDKK([Dab-AEEA-Dab-AEEA-C20 diacid])AQ[αMeK]AFIQYLLA[Aib]GPSSGAPPPS-NH2
B7: Example 22 (peptide)
peptide: Y[Aib]EGTFTSDYSI[αMeL]LDEK([AEEA-AEEA-γGlu-C20 diacid])AQ[αMeK]AFIEYLLE[Aib]GPSSGAPPPS-NH2
modifications: N-terminus assumed
SMILES: CC[C@H](C)[C@H](NC(=O)[C@H](Cc1ccccc1)NC(=O)[C@H](C)NC(=O)[C@](C)(CCCCN)NC(=O)[C@H](CCC(N)=O)NC(=O)[C@H](C)NC(=O)[C@H](CCCCNC(=O)COCCOCCNC(=O)COCCOCCNC(=O)CC[C@H](NC(=O)CCCCCCCCCCCCCCCCCCC(=O)O)C(=O)O)NC(=O)[C@H](CCC(=O)O)NC(=O)[C@H](CC(=O)O)NC(=O)[C@H](CC(C)C)NC(=O)[C@](C)(CC(C)C)NC(=O)[C@@H](NC(=O)[C@H](CO)NC(=O)[C@H](Cc1ccc(O)cc1)NC(=O)[C@H](CC(=O)O)NC(=O)[C@H](CO)NC(=O)[C@@H](NC(=O)[C@H](Cc1ccccc1)NC(=O)[C@@H](NC(=O)CNC(=O)[C@H](CCC(=O)O)NC(=O)C(C)(C)NC(=O)[C@@H](N)Cc1ccc(O)cc1)[C@@H](C)O)[C@@H](C)O)[C@@H](C)CC)C(=O)N[C@@H](CCC(=O)O)C(=O)N[C@@H](Cc1ccc(O)cc1)C(=O)N[C@@H](CC(C)C)C(=O)N[C@@H](CC(C)C)C(=O)N[C@@H](CCC(=O)O)C(=O)NC(C)(C)C(=O)NCC(=O)N1CCC[C@H]1C(=O)N[C@@H](CO)C(=O)N[C@@H](CO)C(=O)NCC(=O)N[C@@H](C)C(=O)N1CCC[C@H]1C(=O)N1CCC[C@H]1C(=O)N1CCC[C@H]1C(=O)N[C@@H](CO)C(N)=O

Tests used:
human GIP receptor [1] = molecular target: T1, human GIP receptor; assay: SPA, [125I]-GIP displacement, hGIPR membranes
human glucagon receptor = molecular target: T3, human glucagon receptor (human, UniProt P47871 26-477); assay: SPA, [125I]-Gcg displacement, hGcgR membranes
T3 construct: whole, on cells; Used as crude membranes of stably transfected HEK293 cells; also called hGcgR; hGLcgR

human GLP-1 receptor = molecular target: T4, human GLP-1 receptor (human, UniProt P43220 24-463); assay: SPA, [125I]-GLP-1 displacement, hGLP-1R membranes
T4 construct: whole, on cells; Used as crude membranes of stably transfected HEK293 cells; also called hGLP1R; hGLP-1R

human GIP receptor [2] = molecular target: T2, human GIP receptor; assay: [125I]-GIP competition SPA, hGIPR membranes
Procedure: The binding buffer contains 25 mM HEPES, pH 7.4, 2.5 mM CaCl₂, 1 mM MgCl₂, 0.1% (w/v) bacitracin, 0.003% (w/v) TWEEN®-20, and Roche Complete™ Protease Inhibitors without EDTA. […] Plates are sealed and mixed on a plate shaker (setting 6) for 1 minute and read with a PerkinElmer Trilux MicroBeta® scintillation counter after 2.5 to 12 hours of incubation/settling time at room temperature.
Data are analyzed using four-parameter (curve maximum, curve minimum, IC₅₀, Hill slope) nonlinear regression routines (Genedata Screener, version 12.0.4, Genedata AG, Basal, Switzerland). […] Values for Kᵢ are reported as the geometric mean, with error expressed as the standard error of the mean (SEM) and n is equal to the number of independent replicates (determined in assays performed on different days). Geometric Means are calculated as follows: […]

T3 sequence (P47871 26-477): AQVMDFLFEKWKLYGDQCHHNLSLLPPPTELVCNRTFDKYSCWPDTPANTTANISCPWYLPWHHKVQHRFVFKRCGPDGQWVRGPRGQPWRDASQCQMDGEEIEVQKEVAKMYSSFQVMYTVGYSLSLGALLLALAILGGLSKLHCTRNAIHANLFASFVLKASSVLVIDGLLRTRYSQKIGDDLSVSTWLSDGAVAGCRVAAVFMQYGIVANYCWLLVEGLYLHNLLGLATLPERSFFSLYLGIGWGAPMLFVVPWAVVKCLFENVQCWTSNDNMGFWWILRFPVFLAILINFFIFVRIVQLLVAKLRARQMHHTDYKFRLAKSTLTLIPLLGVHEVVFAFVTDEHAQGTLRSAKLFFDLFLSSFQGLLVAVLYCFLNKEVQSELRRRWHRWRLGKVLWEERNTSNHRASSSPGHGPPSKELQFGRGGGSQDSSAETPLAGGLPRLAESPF

Binder	Ki (human GIP receptor [1])	Ki (human glucagon receptor)	Ki (human GLP-1 receptor)	Ki (human GIP receptor [2])
B1	0.284 nM	130 nM	2.19 nM	–
B2	0.0841 nM	371 nM	2.78 nM	–
B3	0.606 nM	261 nM	7.63 nM	–
B4	–	–	–	0.114 nM
B5	0.0798 nM	50.1 nM	0.319 nM	–
B6	0.0518 nM	60.5 nM	0.24 nM	–
B7	0.624 nM	53.4 nM	23.1 nM	–
